Among the data in the supplement of paper PMC10567573 are protein stability index values, retold here.

First the molecules themselves.
B1: NET1 (parent)
chain: IKRTIRVLDVNNQSFREQEEPSNK
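Also: lentivirally expressed fusions sorted by FACS into six bins by GFP to DsRed ratio, PSI derived from sequencing read proportions per bin multiplied by bin number.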

The variants in this data set derive from B1. Nature of the data set: protein stability index of a GFP-peptide fusion (GPS, HEK-293T) (PSI 1-6); higher = more stable. To be noted: c terminus: a fixed tail appended.
For the variant IKRTIRVLDVNNQSFREEEEPSNK, the protein stability index is 3.76. The same measure for IKRTIRVLDVNNQSFREAEEPSNK: 2.27; for IKRTIRVLDVNNQSFREMEEPSNK: 3.07. Take IKRTIRVLDVNNQSFHEQEEPSNK: the protein stability index stood at 3.69. Take IKRTIRVLDVNNQSFNEQEEPSNK: the protein stability index came to 4.57.

With IKRTIRVLIVNNQSFREQEEPSNK, the protein stability index turned out to be 1.58. The same measure for IKRTIRVLKVNNQSFREQEEPSNK: 4.44; for IKRTIRVLSVNNQSFREQEEPSNK: 3.5; for IKRTIYVLDVNNQSFREQEEPSNK: 2.35. IKRTIHVLDVNNQSFREQEEPSNK: the protein stability index amounted to 4.45. Take IKRTILVLDVNNQSFREQEEPSNK: the protein stability index worked out at 2.63. To IKRTISVLDVNNQSFREQEEPSNK belongs 4.23.

Take IKRTIRVLDVNNISFREQEEPSNK: the protein stability index is 2.99. To IKRTIRVLDVNNSSFREQEEPSNK belongs 4.19. The same measure for IKRTIRVLDVNNTSFREQEEPSNK: 3.37; for IKRTIRVLDVNNWSFREQEEPSNK: 2.51. The same measure for IKRTIRVLDVNNCSFREQEEPSNK: 3.01. In the case of IKRTIRVLDVNNQSFREQEAPSNK, the protein stability index came to 3.69. To IKRTIRVLDVNNQSFREQEKPSNK belongs 2.9. To IKRTIRVLDVNNQSFREQEGPSNK belongs 3.19; to FKRTIRVLDVNNQSFREQEEPSNK, 4.03. With LKRTIRVLDVNNQSFREQEEPSNK, the protein stability index is 3.27. The same measure for GKRTIRVLDVNNQSFREQEEPSNK: 3.67; for IKRTIRVLDVNNQSFREQEEPSNG: 3.83. To IKRTIRVLDVNNQSFREQEEPSNR belongs 3.52; to IKRTIRVLDVNNQSFREQEEPSNI, 3.29. Regarding IKRTIRDLDVNNQSFREQEEPSNK, the protein stability index amounted to 4.53. To IKRTIRYLDVNNQSFREQEEPSNK belongs 3.04. To IKRTIRMLDVNNQSFREQEEPSNK belongs 3.27. To IKRTIRRLDVNNQSFREQEEPSNK belongs 3.71. For IKRTWRVLDVNNQSFREQEEPSNK, the protein stability index came to 3.31. Take IKRTFRVLDVNNQSFREQEEPSNK: the protein stability index was 3.39. The same measure for IKRTQRVLDVNNQSFREQEEPSNK: 5.04. The same measure for IKRTTRVLDVNNQSFREQEEPSNK: 5.1; for IKRTARVLDVNNQSFREQEEPSNK: 4.53; for IKRTPRVLDVNNQSFREQEEPSNK: 3.78. To IKRTIRVLDVNNQSFREQEEESNK belongs 3.36. For the variant IKRTIRVLDVNNQSFREQEEISNK, the protein stability index was 2.57. To IKRTIRVLDVNNQSFREQEESSNK belongs 4.27. For IKRTIRVLDVNNQSFREQEENSNK, the protein stability index is 3.92. To IKRTIRVLDVNNQSFREQEEYSNK belongs 3.78.

In the case of IKRTIRVLDHNNQSFREQEEPSNK, the protein stability index was determined as 4.23.

Regarding IKRTIRVLDSNNQSFREQEEPSNK, the protein stability index is 3.85.

Consider IKRTIRVLDVNNQGFREQEEPSNK, for which the protein stability index was 4.17. The same measure for IKRTIRVLDVNNQCFREQEEPSNK: 3.27.

For the variant IKRTIRVLDVNNQRFREQEEPSNK, the protein stability index was determined as 3.78. The same measure for IKRTIRVLDVNNQYFREQEEPSNK: 2.6; for IKRTIRVLDVNNQHFREQEEPSNK: 3.09; for IKRTIRVLDVNNQFFREQEEPSNK: 2.56.

As for IKRTIRVLDVNNQLFREQEEPSNK, the protein stability index came to 2.62.

As to IKRPIRVLDVNNQSFREQEEPSNK, the protein stability index was 3.89.

As to IKRKIRVLDVNNQSFREQEEPSNK, the protein stability index was 3.75.

Consider IKRRIRVLDVNNQSFREQEEPSNK, for which the protein stability index was found to be 3.99. To IKRWIRVLDVNNQSFREQEEPSNK belongs 2.38; to IKRGIRVLDVNNQSFREQEEPSNK, 3.41. As for IKRMIRVLDVNNQSFREQEEPSNK, the protein stability index stood at 3.3. To IKRHIRVLDVNNQSFREQEEPSNK belongs 3.89; to IKRTIRVQDVNNQSFREQEEPSNK, 4.41; to IKRTIRVTDVNNQSFREQEEPSNK, 4.72.

For IKRTIRVVDVNNQSFREQEEPSNK, the protein stability index was 3.94.

As to IKRTIRVSDVNNQSFREQEEPSNK, the protein stability index is 4.44. The same measure for IKRTIRVGDVNNQSFREQEEPSNK: 4.99; for IKRTIRVLDVNNQSFREQAEPSNK: 2.57; for IKRTIRVLDVNNQSFREQFEPSNK: 2.15. Consider IKRTIRVLDVNNQSFREQQEPSNK, for which the protein stability index came out at 2.76.

Regarding IKRTIRVLDVNNQSFREQDEPSNK, the protein stability index was found to be 2.84. The same measure for IKRTIRVLDVNNQSFREQREPSNK: 2.6; for IKRTIRVLDVNNQSFREQTEPSNK: 3.34; for IKRTIRVLDVNNQSWREQEEPSNK: 3.6. Take ICRTIRVLDVNNQSFREQEEPSNK: the protein stability index worked out at 4.05.

Turning to IFRTIRVLDVNNQSFREQEEPSNK, the protein stability index was 3.04.

As for IMRTIRVLDVNNQSFREQEEPSNK, the protein stability index came to 3.75. To IDRTIRVLDVNNQSFREQEEPSNK belongs 4.83; to ILRTIRVLDVNNQSFREQEEPSNK, 3.72; to IKRTIRVLDVANQSFREQEEPSNK, 4.48. As to IKRTIRVLDVWNQSFREQEEPSNK, the protein stability index came to 2.65.

As for IKRTIRVLDVCNQSFREQEEPSNK, the protein stability index came to 3.09. To IKRTIRVLDVNNQSFREQEEPGNK belongs 2.49; to IKRTIRVLDVNNQSFREQEEPINK, 3.28. The same measure for IKRTIRVLDVNNQSFREQEEPANK: 3.04; for IKRTIRVLDVNQQSFREQEEPSNK: 4.08. The same measure for IKRTIRVLDVNFQSFREQEEPSNK: 2.7. Regarding IKRTIRVLDVNTQSFREQEEPSNK, the protein stability index amounted to 3.3.

With IKRTIRVLDVNYQSFREQEEPSNK, the protein stability index amounted to 3.21.

As for IKRTIRVLDVNSQSFREQEEPSNK, the protein stability index was 2.82.

For IKRTIRVLDVNNQSFREQEEPSLK, the protein stability index turned out to be 3.16. To IKRTIRVLDVNNQSFREQEEPSDK belongs 4.51. Consider IKRTIRVLDVNNQSFREQEEPSQK, for which the protein stability index came out at 3.65. The same measure for IKRTIRVLDVNNQSFRFQEEPSNK: 2.8; for IKRTIRVLDVNNQSFRYQEEPSNK: 2.44. For the variant IKDTIRVLDVNNQSFREQEEPSNK, the protein stability index was found to be 4.81. On to IKKTIRVLDVNNQSFREQEEPSNK, for which the protein stability index stood at 3.93.

As to IKATIRVLDVNNQSFREQEEPSNK, the protein stability index turned out to be 3.48.

With IKETIRVLDVNNQSFREQEEPSNK, the protein stability index stood at 4.92.
